Experimental data: paper PMC10066184

Molecular target: GltTk_P208R (UniProt Q5JID0)
Assay: cryo-EM structure; single-particle cryo-EM of GltTk_P208R in MSP2N2 nanodiscs (E. coli lipids), 20 mM Tris-HCl pH 8.0, 100 mM KCl, with 300 mM NaCl and 100 uM L-Asp added; C3 symmetry imposed

stoichiometry N: 3
Substance: GltTk_P208R (from UniProt Q5JID0 1-430) (natural protein)
